Test system: MS2 coat protein
Experiment: apparent KD of MS2 coat protein; designed switch direction (-1 OFF switch, 1 ON switch): 1; higher = weaker reporter binding
Summary of the method: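 Transcription of designed RNA switches on Illumina chips was done by stalled E. coli RNA polymerase. SNAP-549-labelled MS2 coat protein was then titrated in doubling steps from 0.7 or 1.5 nM to 3 µM, with steps of 0.8–1.5 h at the lowest and 10–20 min at the highest concentration. The per-design median over clusters of curve-fitted normalised fluorescence is reported as apparent KD.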

[1] = input ligand: microRNA oligo, concentration not stated
[2] = Eterna round: R95, input ligand: FMN 200 uM
[3] = Eterna round: R95, input ligand: microRNA oligo, concentration not stated
[4] = Eterna round: R95, input ligand: none

| Sequence | apparent KD of MS2 coat protein (input ligand: FMN 200 uM) [nM] | apparent KD of MS2 coat protein [1] [nM] | apparent KD of MS2 coat protein (input ligand: none) [nM] | apparent KD of MS2 coat protein [2] [nM] | apparent KD of MS2 coat protein [3] [nM] | apparent KD of MS2 coat protein [4] [nM] |
| --- | --- | --- | --- | --- | --- | --- |
| GCUCGCGACGCAGGAUAUGGGUGCCUGUACAUGAGGAUCACCCAUGUUAAGGGACGGAAAACGAACCAGAAGGGCGUCACGAGC [Ceusdian] (Eterna round: R96, puzzle: Same State NG 2) | 68.1 | 132 | 1120 | – | – | – |
| GCUCGCGGCACAGGAUAUGGGUGCCUGUACAUGAGGAUCACCCAUGUUAAGGGACGGAUUACGAACCAGAAGGGUGUGGCAAGC [Reonisma] (Eterna round: R96, puzzle: Same State NG 2) | 95.5 | 294 | 1060 | – | – | – |
| GCUCGGAUGAUGGCCCACAUGAGGAUCACCCAUGUGCGUGGGCAGGAUAUCUAGAUUAAGGAUGUAGAGAAGGGCCUACCGAGC [SameState NG3 #33] (Eterna round: R96, puzzle: Same State NG 3) | 543 | 140 | 179 | – | – | – |
| GCUCGGCUGAUGGCCCACAUGAGGAUCACCCAUGUGAGUGGGCAGGAUAUCUAGAUUAAGGAUGUAGAGAAGGGCCUGCCGAGC [SameState NG3 #36] (Eterna round: R96, puzzle: Same State NG 3) | 2290 | 19 | 559 | – | – | – |
| GCUCGUAUGAUGACCGACAUGAGGAUCACCCAUGUGUGUUGGUAGGAUAUCUAUAUUAAGGAUAUAGAGAAGGGCCGAACGAGC [SameState NG3 #16] (Eterna round: R96, puzzle: Same State NG 3) | 22.4 | 23.6 | 30.6 | – | – | – |
| GCUCGUGGUAUUGUCUACAUGAGGAUCACCCAUGUAGGUGCGGAGGAUAUCUACGUGUCUCAUGUAGAGAAGGUCGUCACGAGC [SameState NG3 #99] (Eterna round: R96, puzzle: Same State NG 3) | 61.2 | 174 | 38.7 | – | – | – |
| GCUGCAAGGGCAGGAUAUGGGUCCAAAGCGCAAGUGCGCUUUGGUACAUGAGGAUCACCCAUGUCCCAGAAGGGCCCAAACAGC [Bientierqu] (Eterna round: R96, puzzle: Same State NG 2) | 15.5 | 87.2 | 121 | – | – | – |
| GCUGCAAGGGCAGGAUAUGGGUCCAAAGCGCAAGUGCGCUUUGGUACAUGAGGAUCACCCAUGUCCCAGAAGGGCCCAUGCGGC [Edenbiatar] (Eterna round: R96, puzzle: Same State NG 2) | 15.5 | 78.4 | 123 | – | – | – |
| GCUGCAAUAAACGCCUACAUGAGGAUCACCCAUGUAUGUAGGCAGGAUAUCGUUUGCAAAGCAAACGAGAAGGGCCGUAGUAGC [Mat - Same State NG 3 - JL Mod - D35] (Eterna round: R96, puzzle: Same State NG 3) | 26.3 | 44.6 | 66.1 | – | – | – |
| GGAAACAGAGGAGGAUAUGCAGAGGAUCACCCUGUAGAAGGCCUCGAAAGGAGGAUAUGCAGAGGAUCACCCUGUAGAAGGCCU [pwkr ssNG DX.26] (Eterna round: R96, puzzle: Same State NG 1) | 72.1 | 156 | 208 | – | – | – |
| GGAAAGAGGUAAGGAUAUGCAUGGCGGAGACAUGAGGAUCACCCAUGUUGGAGACGAAAUCUAGGGUAGAAGGUACAAGGAAGG [AK SSNG2-V2-11] (Eterna round: R96, puzzle: Same State NG 2) | 133 | 44.6 | 128 | – | – | – |
| GGAAAGAGGUAAGGAUAUGCAUGGCUGGGACAUGAGGAUCACCCAUGUUAUAGAAGAAAUCUAGGGUAGAAGGUACAAGGAAGG [AK SSNG2-V2-9.1] (Eterna round: R96, puzzle: Same State NG 2) | 464 | 199 | 455 | – | – | – |
| GGAAAGAGGUCAGGAUAUGAAUGUUUGGGACAUGAGGAUCACCCAUGUAAUAGAAGAAAUCUACAUUAGAAGGGACAAGGAAGG [AK SSNG2-V2-6] (Eterna round: R96, puzzle: Same State NG 2) | 63.5 | 54.5 | 79.3 | – | – | – |
| GGAAGGAGGUCAGGAUAUGAAUGGAAAGUACAUGAGGAUCACCCAUGUUAUGGAGGAAGGAAACGUUAGAAGGGAUAAGGAAGG [AK SSNG2-V2-2] (Eterna round: R96, puzzle: Same State NG 2) | 32 | 26.8 | 41.5 | – | – | – |
| GGAAUAUGAUGUUACAUGAGGAUCACCCAUGUAGUGAUAACUAAGGAUAUCUGUUAAGAUAAUUAAGAGAAGGUAGGAUCAUAA [AK SSNG3-V2-8.2] (Eterna round: R96, puzzle: Same State NG 3) | 34.7 | 37.5 | 42.4 | – | – | – |
| GGAAUAUUUACAGGAUAUGAUUUGUUAAGUCGAUCAGAAGGGUGGAUGUCUUACACGGUUUGUUACAUGAGGAUCACCCAUGUC [SameState NG1 #14] (Eterna round: R96, puzzle: Same State NG 1) | 73.3 | 74 | 176 | – | – | – |
| GGAAUAUUUACAGGAUAUGUUUUGUUAAGUCGAGCAGAAGGGUAGAUGUCUUACACGGUUUGUUACAUGAGGAUCACCCAUGUU [SameState NG1 #17] (Eterna round: R96, puzzle: Same State NG 1) | – | 86.6 | – | – | – | – |
| GGACGAGACGCAGGAUAUGCGAAGAAGAAGGAAGCAGAAGGGCGUGUGGGACGACAUGAGGAUCACCCAUGUUCUCUGCGAGGA [ssng1 b] (Eterna round: R96, puzzle: Same State NG 1) | 363 | 116 | 331 | – | – | – |
| GGACGGUUAUCAGGAUAUGCGCUGAGCAUCACGGCUACAUGAGGAUCACCCAUGUCUAGCUUCUCGCAGAAGGGAUAGCCUCCU [Eternabot solution 36] (Eterna round: R96, puzzle: Same State NG 2) | 11.2 | 10.1 | 15 | – | – | – |
| GGACGUCACUCAAACAAUUAAACAUGAGGAUCACCCAUGUCACAGGAUAUGGAUCCUAAUUGGAUCCAGAAGGGUGAGACGUCC [Fiskers NG3ss - 41] (Eterna round: R96, puzzle: Same State NG 3) | – | 193 | – | – | – | – |
| GGAGAGAAGUGAGGAUAUGCAUGGAAGACACAUGAGGAUCACCCAUGUGGGAGGGAAACCGGGAGGUAGAAGGCACUGGGAAGA [AK SSNG2-V2-25] (Eterna round: R96, puzzle: Same State NG 2) | 83.7 | 24.1 | 107 | – | – | – |
| GGAGAGAGAGCACAGGAUAUGAGAGGAGAGACAUGAGGAUCACCCAUGUAAGAGAGAGAGGAGAGUUAGAAGGGUGAGAGAGAGG [Altered State 2-20 - Jieux - Same State 2] (puzzle: Same State 2) | – | – | – | 54.7 | 43 | 102 |
| GGAGCAGGGUGAGGAUAUGUAAAAUUCGAAAGGACAGAAGGCACUUAACCAACAUGAGGAUCACCCAUGUAGGCGACGGCACCA [Eternabot solution 8] (Eterna round: R96, puzzle: Same State NG 1) | – | 19.9 | – | – | – | – |
| GGAGCCAGCACCGAGGAUAUUCAUAUUAAAACAUGAGGAUCACCCAUGUAGGCCAGAAGGCCUUGGGAGAAGGCGGAUUGGCUCG [Xeonanis - 10] (puzzle: Same State 2) | – | – | – | 35.3 | 327 | 496 |
| GGAGCCGACACUGAGGAUAUUCAUAUUAAAACAUGAGGAUCACCCAUGUAGGCCAGAAGGCCUUGGGAGAAGGCAGGCCGGCUCG [Inxebi] (Eterna round: R96, puzzle: Same State 2) | 21.9 | 166 | 287 | – | – | – |
| GGAGCCGACACUGAGGAUAUUCAUAUUAAAACAUGAGGAUCACCCAUGUAGGCCAGAAGGCCUUGGGAGAAGGCAGGUCGGCCCG [Bibimoar - 2] (puzzle: Same State 2) | – | – | – | 15.9 | 331 | 294 |
| GGAGCCGGCACCGAGGAUAUUCAUAUUAAAACAUGAGGAUCACCCAUGUAGCUCGAAAGAGCUUGGGAGAAGGCGGAUCGGCUCG [Xeonanis - 29] (Eterna round: R96, puzzle: Same State 2) | 37.3 | 322 | 633 | – | – | – |
